We go through 25 molecules from article PMC9876794 (2022).

The chains are these.
B1: D001 (antibody, V domains shown)
VH: QVQLVESGGGVVQPGRSLRLSCAASGFTFSSYGMHWVRQAPGKGLEWVAVISYDGSNKYYVDSVKGRFTISRDNSKNTLYLQMNSLRAEDTAVYYCAKEGGSYYGGGGYFDYWGQGTLVTVSS
VL: DIQMTQSPSSLSASVGDRVTITCQASQDISNYLHWYQQKPGKAPKLLIYDASNLETGVPSRFSGSGSGTDFTLTISSLQPEDIATYYCQQYDNLPYTFGQGTKLEIK
B2: C2744 (antibody, V domains shown)
VH: EVQLLESGGGLVQTGGSLRLSCAASGFTFSSYAMSWVRQAPGKGLEWVSAISGTGGSTYYADSVKGRFTISRDHSKNTLYLQMNSLRAEDTAVYYCAKPINMIDPHDAFDIWGQGTMVTVSS
VL: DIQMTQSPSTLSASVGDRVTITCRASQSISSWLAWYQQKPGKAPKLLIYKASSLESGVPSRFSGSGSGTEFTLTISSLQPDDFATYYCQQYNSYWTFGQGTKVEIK
B3: D162 (antibody, V domains shown)
VH: QVQLVESGGGVVQPGGSLRLSCAASGFTFSSYGMHWVRQAPGKGLEWVAFIRYDGSNKYYADSVKGRFTISRDNSKNTLYLQMNSLRAEDTAVYYCAKDQYYYGSGSYPWFDPWGQGTLVTVSS
VL: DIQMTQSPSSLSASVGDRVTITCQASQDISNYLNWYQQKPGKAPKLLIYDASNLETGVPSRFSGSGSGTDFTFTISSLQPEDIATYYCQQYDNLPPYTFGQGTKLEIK
B4: D104 (antibody, V domains shown)
VH: QVQLQQWGAGLLKPSETLSLTCAVYGESFSGHYWTWIRQPPGKGLEWIGEINHRGSTDYHASLKSRVSISIDTSKNQFSLRLKSVTAAETAIYYCARGRSAWPRRSFAFWGQGILVTVSS
VL: DIQMTQSPSTLSASVGDRVTITCRASQSISTSLAWYQQKPGKAPKLLIYESSTLESGIPSRFSGSGFRTGFTLTISSLQPDDVATYYCQHYNASPYTFGQGTKLEIK
B5: C2706 (antibody, V domains shown)
VH: EVQLVESGGGVVQPGGSLRLSCAASGFTFSSYGMHWVRQAPGKGLEWVAFIRYDGSNKYYADSVKGRFTISRDNSKNTLYLQMNSLRAEDTAVYYCAKVGGRYSGYEGYFDYWGQGTLVTVSS
VL: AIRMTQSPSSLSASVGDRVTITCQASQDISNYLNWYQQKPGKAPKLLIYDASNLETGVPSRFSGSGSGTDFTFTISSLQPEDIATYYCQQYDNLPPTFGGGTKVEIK
B6: D107 (antibody, V domains shown)
VH: QVQLVQSGAEVKKPGASVKVSCKASGYTFTSYDINWVRQATGQGLEWMGWMNPNSGNTGYAQKFQGRVTMTRNPSISTAYMELSSLTSDDTAVYYCATALPWDGYNPYYFHYWGQGTLVTVSS
VL: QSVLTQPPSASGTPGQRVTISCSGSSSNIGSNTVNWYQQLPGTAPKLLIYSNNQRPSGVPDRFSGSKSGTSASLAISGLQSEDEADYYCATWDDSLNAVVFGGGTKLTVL
B7: C2691 (antibody, V domains shown)
VH: EVQLVESGGGLVQPGRSLRLSCAASGFTFDDYAMHWVRQAPGKGLEWVSGISWNSGSIGYADSVKGRFTISRDNAKNSLYLQMNSLRAEDTALYYCAKDNRLDTMVRGGRVDAFDIWGQGTMVTVSS
VL: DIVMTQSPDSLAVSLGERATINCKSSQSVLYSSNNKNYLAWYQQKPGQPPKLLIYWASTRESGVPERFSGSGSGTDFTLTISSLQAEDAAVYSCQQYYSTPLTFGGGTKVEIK
B8: D081 (antibody, V domains shown)
VH: QVQLQESGPGLVKPSQTLSLTCTVSGGSISSGDYYWSWIRQPPGKGLEWIGYIYYSGSTYYNPSLKSRVTISVDTSKNQFSLKLSSVTAADTAVYYCARVAGIVNWFDPWGQGTLVTVSS
VL: NFMLTQPHSVSESPGKTVTISCTGSSGSIASNYVQWYQQRPGSAPTTVIYEDNQRPSGVPDRFSGSIDSSSNSASLTISGLKTEDEADYYCQSYDSSNQVFGGGTKLTVL
B9: C2732 (antibody, V domains shown)
VH: EVQLVESGGGLVQPGRSLRLSCAASGFTFDDYAMHWVRQAPGKGLEWVSGISWNSGSIGYADSVKGRFTISRDNAKNSLYLQMNSLRAEDTALYYCAKDIGRIAEGYGMDVWGQGTTVTVSS
VL: QSALTQPASVSESPGQSITISCTGTSSDIGGYNYVSWYQQHPGKAPKLMIYEVSNRPSGVSNRFSGSKSGNTASLTISGLQAEDEADYYCSSYTSSSTVVFGGGTKLTVL
B10: D035 (antibody, V domains shown)
VH: EVQLVESGGGLVQPGRSLRLSCAASGFTFDDYAMHWVRQAPGKGLEWVSGISWNSGSIGYADSVKGRFTISRDNAKNSLYLQMNSLRAEDTALYYCAKDTVAGLPYWYFDLWGRGTLVTVSS
VL: not shown
B11: D073 (antibody, V domains shown)
VH: QLQLQESGPGLVKPSETLSLTCTVSGGSMSSGSYYWGWIRQPPGKGLEWIGSIFYSGSTYYNPSLKSRVTISIDTSKRQFSLNLRSVTAADKAVYYCARQDIMGYSDVWGEGTTVTVSS
VL: EIVLTQSPGTLSLSPRERATLSCRASQSITSTYFAWYQQRPGQAPRLLIYDGSRRATGIPDRFSASGSGTDFTLTISGLEAEDFAVYYCQQYLRLPYTFGQGTKLEIK
B12: D137 (antibody, V domains shown)
VH: QVQLVQSGAEVKKPGASVKVSCKASGYTFTSYDINWVRQATGQGLEWMGWMNPNSGNTGYAQKFQGRVTMTRNTSISTAYMELSSLRSEDTAVYYCARAYCSGGSCYSQPWGQGTLVTVSS
VL: QSALTQPPSASGSPGQSVTISCTGTSSDVGGYNYVSWYQQHPGKAPKLMIYEVSKRPSGVPDRFSGSKSGNTASLTVSGLQAEDEADYYCSSYAGSNNWVFGGGTKLTVL
B13: D032 (antibody, V domains shown)
VH: QVQLVESGGGVVQPGRSLRLSCAASGFTFSSYGMHWVRQAPGKGLEWVAVISYDGSNKYYADSVKGRFTISRDNSKNTLYLQMNSLRAEDTAVYYCAKVETVVDSDYYYYYGMDVWGQGTTVTVSS
VL: SYVLTQPPSVSVSPGQTARITCSGDALPKQYAYWYQQKPGQAPVLVIYKDSERPSGIPERFSGSSSGTTVTLTISGVQAEDEADYYCQSADSSGTYWVFGGGTKLTVL
B14: D160 (antibody, V domains shown)
VH: QVQLVQSGAEVKKPGASVKVSCKASGYTFTTYGFSWVRQAPGQGLEWMGWISGYNGNTHYAQKVQGRVTMTTDTSTTTAYMELRSLTYDDTAVYYCARAGDDEANAFDIWGQGTMVTVSS
VL: DIQMTQSPSTLSASVGDRVTITCRASQTISIWLAWYQQKPGKAPKLLIYKASKIQSGVPSRFSGSESGTEFTLTISSLQPDDFATYYCQQYNSYPLTFGGGTKVESK
B15: D072 (antibody, V domains shown)
VH: QVQLQQWGAGLLKPSETLSLTCAVYGGSFSGHYWSWIRQSPGKGLEWIGEINHSGDTNYNASLKSRVTISVDTSKNQFSLQMTSVTAADTAVYYCARRRGIVLMRAVDVWGKGTTVTVSS
VL: EIVMTQSPATLSLSPGERATLSCRASQSVSNNYFSWYQQKPGQAPRLLIYGASARATGIPARFSGSGSGTEFTLTISSLQPEDIALYFCQQDFHPYTFGQGTKLEIK
B16: D131 (antibody, V domains shown)
VH: QVQLVQSGAEVKKPGASVKVSCKASGYTFTSYGISWVRQAPGQGLEWMGWISAYNGNTNYVQKLQGRVTMTTDTSTSTAYMELRSLRSDDTAVYYCARVQYYYGSGSYRSTYYFDYWGQGTLVTVSS
VL: QPVLTQSSSASASLGSSVKLTCTLSSGHSSYIIAWHQQQPGKAPRYLMNLEGSGSYNKGSGVPDRFSGSSSGADRYLTISNLQSEDEADYYCETWDSNIWVFGGGTKLTVL
B17: D054 (antibody, V domains shown)
VH: QVQLVQSGAEVKKPGASVKVSCKASGYTFTSYYMHWVRQAPGQGLEWMGIINPSGGSTSYAQKFQGRVTMTRDTSTSTVYMELSSLRSEDTAVYYCARESGTGFGELPKGGPFDYWGQGTLVTVSS
VL: not shown
B18: D143 (antibody, V domains shown)
VH: EVQLVESGGGLVQPGGSLRLSCAASGFTFSSYSMNWVRQAPGKGLEWVSYISSSSSTIYYADSVKGRFTISRDNAKNSLYLQMNSLRDEDTAVYYCASHYGAPTSYYYYGMDVWGQGTTVTVSS
VL: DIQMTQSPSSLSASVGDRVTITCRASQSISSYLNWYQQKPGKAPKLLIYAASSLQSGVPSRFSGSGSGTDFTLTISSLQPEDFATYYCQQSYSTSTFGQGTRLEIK
B19: D184 (antibody, V domains shown)
VH: QVQLVQSGAEVKKPGSSVKVSCKASGGTFSSYAISWVRQAPGQGLEWMGGIIPIFGTANYAQKFQGRVTITADESTSTAYMELSSLRSEDTAVYYCARGRGSTYYYYYYMDVWGKGTTVTVSS
VL: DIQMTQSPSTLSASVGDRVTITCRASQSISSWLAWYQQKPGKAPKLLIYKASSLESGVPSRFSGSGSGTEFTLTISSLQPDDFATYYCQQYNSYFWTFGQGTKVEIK
B20: C2729 (antibody, V domains shown)
VH: QLQLQESGPGLVKPSETLSLTCTVSGGSISSSSYYWGWIRQPPGKGLEWIGSIYYSGSTYYNPSLKSRVTISVDTSKNQFSLKLSSVTAADTAVYYCARRWIQLWSGFDPWGQGTLVTVSS
VL: DIQLTQSPSFLSASVGDRVTITCRASQGISSYLAWYQQKPGKAPKLLIYAASTLQSGVPSRFSGSGSGTEFTLTISSLQPEDFATYYCQQLNSYSITFGQGTRLEIK
B21: D168 (antibody, V domains shown)
VH: EVQLVESGGGLVKPGGSLRLSCAASGFTFSSYSMNWVRQAPGKGLEWVSSISSSSSYIYYADSVKGRFTISRDNAKNSLYLQMNSLRAEDTAVYYCARDLGTAIVYVREKYYYGMDVWGQGTTVTVSS
VL: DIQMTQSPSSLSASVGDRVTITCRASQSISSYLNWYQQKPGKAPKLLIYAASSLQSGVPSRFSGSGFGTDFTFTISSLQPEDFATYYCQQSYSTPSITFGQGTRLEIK
B22: D166 (antibody, V domains shown)
VH: EVQLVESGGGLVQPGGSLRLSCAASGFTFSSYDMHWVRQATGKGLEWVSAIGTAGDTYYPGSVKGRFTISRENAKNSLYLQMNSLRAGDTAVYYCARVSYDSSGYYWVFDYWGQGTLVTVSS
VL: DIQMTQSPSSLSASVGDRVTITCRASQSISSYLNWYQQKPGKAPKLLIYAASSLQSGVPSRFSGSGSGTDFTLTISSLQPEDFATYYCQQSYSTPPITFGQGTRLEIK
B23: D030 (antibody, V domains shown)
VH: QVQLVQSGAEVKKPGASVKVSCKASGYTFTSYDINWVRQATGQGLEWMGWMNPNSGNTGYAQKFQGRVTMTRNTSISTAYMELSSLRSEDTAVYYCARDGSGPYDILTGYGMDVWGQGTTVTVSS
VL: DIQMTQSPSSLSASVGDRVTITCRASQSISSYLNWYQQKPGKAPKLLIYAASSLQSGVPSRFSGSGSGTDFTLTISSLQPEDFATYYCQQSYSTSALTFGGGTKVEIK
B24: D079 (antibody, V domains shown)
VH: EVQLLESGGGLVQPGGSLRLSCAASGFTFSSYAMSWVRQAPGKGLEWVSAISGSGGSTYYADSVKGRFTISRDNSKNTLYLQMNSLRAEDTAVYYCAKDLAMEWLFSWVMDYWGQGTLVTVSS
VL: QSALTQPASVSGSPGQSITISCTGTSSDVGGYNYVSWYQQHPGKAPKIMIYDVSNRPSGVFNRFFGSKSGNTASLTIFGLQAEDEADYYCSSYTSSSTLGVFGGGTKLTVL
B25: D028 (antibody, V domains shown)
VH: QVQLVQSGAEVKKPGASVKVSCKASGYTFISYYVHWVRQAPGQGLEWMGIINPSGGSTSYTQKFQGRVTMTRDTSTSTVYMELSSLRFEDTAVYYCATEGGMITENSSLHWGQGTLVTVSS
VL: DIQMTQSPSTLSASVGDRVTITCRASQSISSWLAWYQQKPGKAPKLLIYKASSLESGVPSRFSGSGSGTEFTLAISSLQPDEFATYYCQQYNSYPWTFGQGTKVEIK

In one test the target is T1, SARS-CoV-2 spike RBD (WT) (Severe acute respiratory syndrome …, UniProt P0DTC2). The experiment in a line: BLI. (In general: Biolayer interferometry detects binding as a change in optical thickness at a sensor tip.)
Regarding B1, the Kd was found to be 16.6 nM. As for B2, binding was put at a Kd of 248 nM. Molecule B3 came in with a Kd of 1440 nM.

The next test deals with T1, SARS-CoV-2 spike RBD (WT). Briefly: ELISA. The arrangement: unit not given here.
B4 returned a binding score above 10000. The same measure, in the same setting: as for B1, the figure is 77.6; as for B5, above 10000. The same measure, in the same setting: as for B6, the figure is above 10000. B7 yielded a binding score above 10000. B8 showed a binding score above 10000. For B9, the binding score was 376. B2 came in with a binding score of 5390.

B10: the binding score was above 10000.

The molecule B3 showed a binding score of 958.

B11 returned a binding score above 10000. With B12, the binding score turned out to be 395.

B13 showed a binding score above 10000. The molecule B14 displayed a binding score of 491. B15: the binding score is above 10000.

The molecule B16 returned a binding score above 10000. In turn, B17 had a binding score above 10000.

B18 returned a binding score of 39.5. B19 had a binding score of 8050.

In turn, B20 gave a binding score above 10000. Same read-out and setting: as for B21, the figure is 4730. The molecule B22 came in with a binding score of 2870. B23 returned a binding score above 10000. As to B24, the binding score was above 10000. Molecule B25 had a binding score above 10000.

As a reminder, the Kd is the constant that tells how readily two partners part at equilibrium.
